The data set is described as follows: protein stability index of a GFP-peptide fusion (GPS, HEK-293T) (PSI 1-6); higher = more stable.
[1] abbreviates: treatment: DMSO, c terminus: a fixed tail appended.
[2] abbreviates: treatment: MLN4924 1 uM, 8 h, c terminus: a fixed tail appended.

Consider 72 sequences from the supplement of paper PMC10567573.

± gives the standard deviation.
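Further: 24-mer peptide tiles fused after GFP, lentivirally expressed, FACS-sorted into six equal bins by GFP/DsRed ratio, decoded by Illumina sequencing, PSI is the read-weighted mean bin number.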

Take VEPETRAVIRWMHSFNFVLSANLH [CPN1]: the protein stability index under setting [1] is 3.1 ± 0.12 and the protein stability index under setting [2] is 3.19 ± 0.27.
Taken in the same sequence, the figures for TEKQNFLLFDMTTHPVTNTTEKQR [GOLPH3L] were 4.31 ± 0.18 and 4.4 ± 0.32.
Taken in the same sequence, the figures for GQCQVLVQRSPWLMMRMGILGRGL [TCAP] were 2.2 ± 0.14 and 2.14 ± 0.16.
Taken in the same sequence, the figures for EILTKESNVQEVRCPVTVCGDVHG [PPP2CA] were 3.69 ± 0.57 and 3.79 ± 0.12.
On to TVSTMYYLWMCSTLALLLNFLACL [SCAMP3], for which the protein stability index under setting [1] was found to be 3.13 ± 0.22 and the protein stability index under setting [2] was determined as 3.03 ± 0.63.
SCTVTTVQPMDRLPYQHFSAHFTS [TBX5] had a protein stability index under setting [1] of 2.23 ± 0.15 and a protein stability index under setting [2] of 2.31 ± 0.17.
Turning to IQSGAWVCYQYPGYRGYQYILECD [CRYBA1], the protein stability index turned out to be 2.39 ± 0.38 under setting [1] and 2.58 ± 0.59 under setting [2].
The matching figures for AHAVLGQHSHVVRYFSAWAEDDHM [WEE1]: 3.55 ± 0.43 and 3.71 ± 0.057.
Turning to EPPKCLDPCVISQEIMEKYNIKLK [CFHR2], the protein stability index runs as follows: under setting [1], 2.84 ± 0.27; under setting [2], 2.87 ± 0.34.
Taken in the same sequence, the figures for QILYESCPKYKFISCPTCRRETVL [RNF208] were 2.15 ± 0.32 and 2.23 ± 0.28.
Taken in the same sequence, the figures for KWKVGIPSDPLVSIGALISKAHLE [ALDH8A1] were 2.48 ± 0.11 and 2.74 ± 0.17.
The matching figures for QEELTRINQSFTGAERKAALCELL [IQUB]: 3.41 ± 0.28 and 3.63 ± 0.17.
On to SVLVILISIVIFCLETLPEFRDDR [KCNA4], for which the protein stability index runs as follows: under setting [1], 2.99 ± 0.29; under setting [2], 2.96 ± 0.5.
The matching figures for GWLQHDFGHLSVFSTSKWNHLLHH [FADS1]: 2.04 ± 0.44 and 2.19 ± 0.29.
For KGGNLRDKLDGNELDLSLSDLNEV [LRRC59], the protein stability index reads like this: under setting [1], 4.86 ± 0.075; under setting [2], 5.11 ± 0.17.
The matching figures for SDGRQDSPAGELPKTVQQPTESEP [MATN2]: 5.51 ± 0.24 and 5.57 ± 0.35.
Taken in the same sequence, the figures for FCMFYAVLGIPLTLVMFQSLGERM [KCNK9] were 3.7 ± 0.32 and 2.95 ± 0.31.
Taken in the same sequence, the figures for SYEKAVKTRVDLKELGQSQKEQGL [PDZK1] were 4.75 ± 0.15 and 4.84 ± 0.12.
In the case of TGIVSVAFLLLPLPDELGSQLPQV [MOSPD3], the protein stability index runs as follows: under setting [1], 2.75 ± 0.59; under setting [2], 2.72 ± 0.86.
Taken in the same sequence, the figures for NELVKCIEELCQKREELCRQIQEE [SSNA1] were 3.62 ± 0.33 and 3.76 ± 0.26.
The matching figures for LEKSNKNFSKKIQQIHVVSQFKIL [VPS39]: 2.17 ± 0.24 and 2.07 ± 0.26.
QGLIGSVEEQLAQLRCEMEQQNQE [KRT17]: the protein stability index by setting is: under setting [1], 5.3 ± 0.36; under setting [2], 5.29 ± 0.34.
The matching figures for RRLLSYCKGRDHGVLDALHVLEGL [ZSWIM9]: 2.03 ± 0.21 and 2.16 ± 0.3.
In the case of EVLLDHLKAHAEEKPPSGTKEKKH [PLAGL1], the protein stability index runs as follows: under setting [1], 4.88 ± 0.2; under setting [2], 5.08 ± 0.14.
In turn, MGSTESSEGRRVSFGVDEEERVRV [CHCHD6] yielded a protein stability index under setting [1] of 5.15 ± 0.29 and a protein stability index under setting [2] of 5.22 ± 0.13.
In the case of SCDLPEERYRHEIAHDGQRIYVLG [KLHDC10], the protein stability index under setting [1] is 3.81 ± 0.17 and the protein stability index under setting [2] was found to be 3.75 ± 0.25.
The matching figures for SPSESSETVLALVNCISPLKYFSD [DENND6A]: 2.78 ± 0.3 and 2.8 ± 0.35.
Taken in the same sequence, the figures for DSSNPYPNFNFNISHQGDYAVLAA [AASDHPPT] were 3.24 ± 0.36 and 3.42 ± 0.41.
The matching figures for WLDPGHTAVAQAPPAVASSSLFDL [SERTAD1]: 3.33 ± 0.27 and 3.38 ± 0.097.
For KEYAAKFIKKRRLSSSRRGVSREE [DAPK3], the protein stability index is 4.15 ± 0.15 under setting [1] and 4.379 ± 0.041 under setting [2].
In turn, THICRSHNSINQSLDESVIYGPGN [SLC2A12] returned a protein stability index under setting [1] of 3.62 ± 0.18 and a protein stability index under setting [2] of 3.74 ± 0.2.
For FGGAAAVAILAVAIGVALALRKK [BCL2L13], the protein stability index is 2.99 ± 0.2 (treatment: DMSO, c terminus: native) and 2.81 ± 0.21 (treatment: MLN4924 1 uM, 8 h, c terminus: native).
In the case of GPGFHAGTSALWRHLRSAHRRELE [ZBED3], the protein stability index is 2.73 ± 0.34 under setting [1] and 3.13 ± 0.53 under setting [2].
Regarding VSNFLKERTGFSIRPVAGYLSPRD [TPH1], the protein stability index was determined as 2.71 ± 0.33 under setting [1] and 2.95 ± 0.31 under setting [2].
Consider VWFGGREHVLMFAKLALYPCASLL [TMEM175], for which the protein stability index is, setting by setting: under setting [1], 2.77 ± 0.26; under setting [2], 3.18 ± 0.27.
Consider AAINSIYSNTDANILFYVVGLRNT [GLT8D2], for which the protein stability index by setting is: under setting [1], 2.97 ± 0.91; under setting [2], 2.75 ± 0.73.
The matching figures for SLVLILSLSYTVLIVGRIAIGVSI [SLC2A12]: 2.94 ± 0.2 and 3.41 ± 0.33.
Turning to LKYLHEQEILHRDLKLGNFFINEA [PLK2], the protein stability index runs as follows: under setting [1], 1.85 ± 0.18; under setting [2], 1.97 ± 0.3.
Taken in the same sequence, the figures for NYGGVIKNYFQHREFSFTLKDDIY [PRIM1] were 2.13 ± 0.2 and 2.25 ± 0.08.
In the case of DEHIASEEPAEKEDLLQQMLERRY [CLCN6], the protein stability index under setting [1] stood at 5.03 ± 0.2 and the protein stability index under setting [2] turned out to be 4.98 ± 0.16.
Consider FLHLRTHTEERPYECNHCGKGFRH [ZNF8], for which the protein stability index is, setting by setting: under setting [1], 2.79 ± 0.34; under setting [2], 2.97 ± 0.36.
Taken in the same sequence, the figures for NVNVTLLSKQAKFAYKDEYEKFKL [TMEM120A] were 2.9 ± 0.15 and 2.82 ± 0.23.
Sequence QVEKNKYDASAIDFSRCDMDGATL [ELF3] yielded a protein stability index under setting [1] of 4.63 ± 0.23 and a protein stability index under setting [2] of 4.58 ± 0.14.
In the case of PIDPAAWVSHTAAMTGTFPAYGMS [DVL3], the protein stability index worked out at 2.73 ± 0.36 under setting [1] and 2.75 ± 0.18 under setting [2].
Regarding ALHHVHTHLILHRDLKTQNILLDK [NEK8], the protein stability index amounted to 2.25 ± 0.19 under setting [1] and 2.29 ± 0.25 under setting [2].
The matching figures for FCEELESMIQEQFKKGKNPTGLLA [ADD1]: 3.9 ± 0.2 and 3.81 ± 0.18.
Taken in the same sequence, the figures for TPWALALLRTFDAGEFTGWEKVGS [RIPK4] were 2.29 ± 0.61 and 1.49 ± 0.13.
Consider LFGFYFCMPLVCTAIFYTLMTCEM [EDNRA], for which the protein stability index was 3.11 ± 0.33 under setting [1] and 3.14 ± 0.42 under setting [2].
The matching figures for KIDYCASSNHGCQHECVNTDDSYS [MATN2]: 4.37 ± 0.18 and 4.5 ± 0.18.
As to NTCSVITTLKGHEGSVACLWWDPI [WDFY1], the protein stability index was 2.09 ± 0.39 under setting [1] and 2.34 ± 0.46 under setting [2].
GWLSVSDDLTSVTNHGYRVQVENP [TRIM35] gave a protein stability index under setting [1] of 3.12 ± 0.17 and a protein stability index under setting [2] of 3.24 ± 0.18.
As for EILYPALPTDGSTGVELAPRSAEP [PCDHGA10], the protein stability index runs as follows: under setting [1], 4.57 ± 0.23; under setting [2], 4.85 ± 0.1.
With MNEVEKTMEYSMVGRTVLDMLIRE [RSPH3], the protein stability index under setting [1] came to 2.59 ± 0.56 and the protein stability index under setting [2] was found to be 2.16 ± 0.22.
Consider PQYRSYFMECLVDARMLDHLTKKD [PPFIA4], for which the protein stability index is, setting by setting: under setting [1], 2.7 ± 0.2; under setting [2], 2.58 ± 0.17.
The matching figures for GSKFRYSGRTQAQTRRASALIDRP [EPB41L3]: 3.35 ± 0.41 and 3.44 ± 0.27.
Turning to LPPALVPAGGLAPGGGRGALLDQI [WAS], the protein stability index was determined as 3.69 ± 0.12 under setting [1] and 3.71 ± 0.25 under setting [2].
The matching figures for NIMGIENICELAARMLFSAVEWAR [NR2F2]: 3.04 ± 0.18 and 2.79 ± 0.25.
Taken in the same sequence, the figures for VAGMPTAYDLSSVIASGSSVGHNN [CARM1] were 3.86 ± 0.19 and 3.86 ± 0.23.
The matching figures for LMSESEWRNLGVQQSQGWVHYMIH [CKS1B]: 2.42 ± 0.35 and 2.05 ± 0.31.
Turning to AKVNYVKNNICFMSHHQEELVPKQ [SLC2A12], the protein stability index stood at 3 ± 0.41 under setting [1] and 3.16 ± 0.41 under setting [2].
The matching figures for PHIYGARIKGVEVFCPLDPPPPYE [FAM189A2]: 2.96 ± 0.17 and 3.04 ± 0.19.
Taken in the same sequence, the figures for ERERLYPFSECGEAVSDSTPFLTN [ZNF263] were 4.16 ± 0.16 and 4.11 ± 0.27.
With SDDHIRVIVQLHKLRHLDISRDRL [ZER1], the protein stability index by setting is: under setting [1], 2.38 ± 0.18; under setting [2], 2.53 ± 0.11.
Consider HGDSQQTHLLKQGRSSMGTGLSGG [CRY1], for which the protein stability index under setting [1] is 4.36 ± 0.16 and the protein stability index under setting [2] was found to be 4.43 ± 0.14.
In turn, LGDTQFCFRFRQSSGRRVSLHCLL [DENND6A] displayed a protein stability index under setting [1] of 2.89 ± 0.48 and a protein stability index under setting [2] of 2.65 ± 0.59.
FSFSMKGHEKTAKSKTRSLLKRME [DLC1]: the protein stability index under setting [1] is 2.84 ± 0.24 and the protein stability index under setting [2] was 3.06 ± 0.23.
Taken in the same sequence, the figures for NLDTEELCEYFSQHLGEYENVLAA [NECAB1] were 2.83 ± 0.32 and 3.3 ± 0.66.
The matching figures for GRRVNAKMPVYSGSRPACQLQVPT [ELOA2]: 3.11 ± 0.32 and 3.49 ± 0.44.
In the case of WSKTQVLDWISYQVEKNKYDASAI [ELF3], the protein stability index by setting is: under setting [1], 2.59 ± 0.2; under setting [2], 2.48 ± 0.28.
As to LHLGLPWRMLRPQLVNSSADNMLE [PPEF2], the protein stability index is, setting by setting: under setting [1], 2.87 ± 0.31; under setting [2], 2.67 ± 0.48.
FTEKLWPLFYPGIRAGRKNAAPLT [TRIM39]: the protein stability index was determined as 2.59 ± 0.74 under setting [1] and 2.25 ± 0.16 under setting [2].
Take DVGENLTVPDEFTVEERQTGMWWR [SLC25A25]: the protein stability index runs as follows: under setting [1], 4.18 ± 0.14; under setting [2], 4.16 ± 0.28.
